# Data as given in patent publication US5985836A, “Alpha-1 proteinase inhibitor binding peptides” (Bayer Corporation, priority 1998, dated 1999).
# Columns and labels:
# [1] = target: T1, A1PI (Homo sapiens, UniProt P01009); test: Capture and elution of active A1PI with 2M urea buffer (elastase inhibition activity assay and immunonephelometry); type: binding; settings: for Mass A1PI in Urea Eluate (mg), Activity / Mass A1PI in Urea Eluate (mg), Nephelometry: 1 mg A1PI, eluted with 2M urea, pH 6; for Mass A1PI in Urea Eluate (mg), Activity: elastase inhibition activity assay; for Mass A1PI in Urea Eluate (mg), Nephelometry: immunonephelometry
# T1 construct: Human plasma is currently the only approved source of therapeutic AlPI
# T1 sequence (P01009 25-418): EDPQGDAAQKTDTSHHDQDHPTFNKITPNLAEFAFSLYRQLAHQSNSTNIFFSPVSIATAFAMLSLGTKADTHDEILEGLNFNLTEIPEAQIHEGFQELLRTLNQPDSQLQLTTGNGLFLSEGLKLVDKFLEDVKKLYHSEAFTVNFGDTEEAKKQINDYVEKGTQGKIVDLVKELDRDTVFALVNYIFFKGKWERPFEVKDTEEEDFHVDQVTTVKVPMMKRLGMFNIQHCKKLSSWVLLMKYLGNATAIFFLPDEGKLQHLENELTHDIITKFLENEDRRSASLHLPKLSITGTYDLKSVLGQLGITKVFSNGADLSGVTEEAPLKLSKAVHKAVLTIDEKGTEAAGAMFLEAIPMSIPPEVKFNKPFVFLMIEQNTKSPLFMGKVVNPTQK
# [2] = target: T1, A1PI; test: A1PI binding on peptide-resin column, injection of 1 mg A1PI in equilibration buffer; settings: sequence order, 1 mg AlPI
# Outline: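 Peptides synthesized on A-Totda-Toyopearl chelate resin (0.1 mmole/g) packed in 0.4×5 cm columns; 1 mg A1PI injected in equilibration buffer at 4 °C or 20 °C, 865 or 523 μl/min. Flowthrough, 1M/3M NaCl washes and 2% acetic acid eluate quantified by A280 or immunonephelometry as percent of total eluted.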
# [3] = target: T1, A1PI; test: A1PI purification from 5 mg hSA + 1 mg A1PI on peptide column, A1PI mass balance; type: binding; settings: Table 19, A1PI, 5 mg hSA + 1 mg A1PI; for Mass Protein per Eluate Fraction, 1M NaCl / Mass Protein per Eluate Fraction, 2% Acetic Acid / Mass Protein per Eluate Fraction, Flow: * Below detection limit; for Percent Eluted by Fraction, 1M NaCl / Percent Eluted by Fraction, 2% Acetic Acid / Percent Eluted by Fraction, 3M NaCl / Percent Eluted by Fraction, Flow: relative to total loaded
# Outline: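 Peptides on A-Totda-Toyopearl resin (0.1 mmole/g) in 0.4×5 cm columns; 5 mg hSA + 1 mg A1PI loaded at 4 °C or 20 °C with 10 min residence (17 μl/min). Steps of 1M and 3M NaCl, then 2% acetic acid; fractions quantified by immunonephelometry for mass balance.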
# [4] = mass of A1PI by activity assay relative to immunonephelometry, urea eluate, 4° C.
substance,measurement,setting,value
Neat A1PI: freshly dissolved human alpha-1 proteinase inhibitor fed to the columns,"Mass A1PI in Urea Eluate (mg), Activity",[1]; 4° C.,0.87 mg
same,"Mass A1PI in Urea Eluate (mg), Nephelometry",[1]; 4° C.,1.10 mg
same,Specific Activity,[1]; activity assay mass relative to immunonephelometry mass,0.79 mg/mg
same,Specific Activity,[1]; [4],0.79 mg/mg
RVLFIH: reversed sequence of VIFLVR with C-terminal His,"Percent AlPI Eluted by Fraction, 1M NaCl",[2]; 4° C.,29%
same,"Percent AlPI Eluted by Fraction, 2% Acetic Acid",[2]; 4° C.,71%
same,"Percent AlPI Eluted by Fraction, Flowthrough",[2]; 4° C.,0%
same,"Percent AlPI Eluted by Fraction, 1M NaCl",[2]; 20° C.,3%
same,"Percent AlPI Eluted by Fraction, 2% Acetic Acid",[2]; 20° C.,97%
same,"Percent AlPI Eluted by Fraction, Flowthrough",[2]; 20° C.,0%
same,"Mass Protein per Eluate Fraction, 1M NaCl",[3]; 4° C.,0.14 mg
same,"Mass Protein per Eluate Fraction, 2% Acetic Acid",[3]; 4° C.,0.43 mg
same,"Mass Protein per Eluate Fraction, Flow",[3]; 4° C.,0.31 mg
same,"Percent Eluted by Fraction, 1M NaCl",[3]; 4° C.,16%
same,"Percent Eluted by Fraction, 2% Acetic Acid",[3]; 4° C.,49%
same,"Percent Eluted by Fraction, 3M NaCl",[3]; 4° C.,0%
same,"Percent Eluted by Fraction, Flow",[3]; 4° C.,35%
same,"Mass Protein per Eluate Fraction, 1M NaCl",[3]; 20° C.,0.00 mg
same,"Mass Protein per Eluate Fraction, 2% Acetic Acid",[3]; 20° C.,0.65 mg
same,"Mass Protein per Eluate Fraction, Flow",[3]; 20° C.,0.09 mg
same,"Percent Eluted by Fraction, 1M NaCl",[3]; 20° C.,0%
same,"Percent Eluted by Fraction, 2% Acetic Acid",[3]; 20° C.,88%
same,"Percent Eluted by Fraction, 3M NaCl",[3]; 20° C.,0%
same,"Percent Eluted by Fraction, Flow",[3]; 20° C.,12%
same,"Mass A1PI in Urea Eluate (mg), Activity",[1]; 4° C.,0.56 mg
same,"Mass A1PI in Urea Eluate (mg), Nephelometry",[1]; 4° C.,0.71 mg
same,Specific Activity,[1]; [4],0.79 mg/mg
